# Source: patent CN112125972A (SINOCELLTECH LTD, dated 2020)
# B1: HPV 16 R001 (antibody, V domains shown)
# VH: QSVKESEGRLVTPGTPLTLTCTASGFTMSRYHMTWVRQAPGKGLEWIGIIYARNSDTYYANWAKGRFTISKTSTTVDLKITSPTIEDTATYFCARVDSDSSGAFDRLDLWGQGTLVTVSS
# VL: DPMLTQTAASVEVAVGGTVTIKCQASQSIGGYLSWYQQKPGQRPKLLIYRASTLASGVPSRFKGSGSGTEYTLTFSGVECADAAAYYCQQGYTSSDINNAFGGGTEVVVK
# notes: An HRP-labelled form served as detection antibody in the sandwich ELISA; also called HPV16.001; 单克隆抗体HPV 16 R001
# Tests used:
# Assay in all cases: indirect ELISA, VLP coated at 2 μg/mL, antibody at 10 ng/mL
# HPV52 VLP = target: T1, HPV52 VLP (Human papillomavirus type 52, UniProt Q05138 27-529)
# T1 construct: also called HPV52完整VLP蛋白
# T1 sequence: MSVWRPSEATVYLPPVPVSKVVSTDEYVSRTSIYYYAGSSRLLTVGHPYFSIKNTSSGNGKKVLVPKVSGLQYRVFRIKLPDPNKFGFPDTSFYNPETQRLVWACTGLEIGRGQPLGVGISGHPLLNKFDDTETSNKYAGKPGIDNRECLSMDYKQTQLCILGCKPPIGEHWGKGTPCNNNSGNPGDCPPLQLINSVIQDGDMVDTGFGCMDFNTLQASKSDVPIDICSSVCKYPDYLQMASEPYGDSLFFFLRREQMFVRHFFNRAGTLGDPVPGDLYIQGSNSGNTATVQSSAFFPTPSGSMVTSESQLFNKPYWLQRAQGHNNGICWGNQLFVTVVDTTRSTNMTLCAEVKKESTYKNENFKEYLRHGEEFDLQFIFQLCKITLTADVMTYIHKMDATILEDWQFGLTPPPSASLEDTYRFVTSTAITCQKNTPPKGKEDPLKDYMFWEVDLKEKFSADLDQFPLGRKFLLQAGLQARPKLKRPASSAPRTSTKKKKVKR
# HPV16 L1 VLP蛋白 = target: T2, HPV16 L1 VLP蛋白 (Human papillomavirus type 16)
# T2 construct: Intact virus-like particle of L1; also called HPV16 VLP; HPV16 VLP蛋白
# HPV6 VLP = target: T3, HPV6 VLP (Human papillomavirus type 6, UniProt P69899 1-500)
# T3 construct: also called HPV6完整VLP蛋白
# T3 sequence: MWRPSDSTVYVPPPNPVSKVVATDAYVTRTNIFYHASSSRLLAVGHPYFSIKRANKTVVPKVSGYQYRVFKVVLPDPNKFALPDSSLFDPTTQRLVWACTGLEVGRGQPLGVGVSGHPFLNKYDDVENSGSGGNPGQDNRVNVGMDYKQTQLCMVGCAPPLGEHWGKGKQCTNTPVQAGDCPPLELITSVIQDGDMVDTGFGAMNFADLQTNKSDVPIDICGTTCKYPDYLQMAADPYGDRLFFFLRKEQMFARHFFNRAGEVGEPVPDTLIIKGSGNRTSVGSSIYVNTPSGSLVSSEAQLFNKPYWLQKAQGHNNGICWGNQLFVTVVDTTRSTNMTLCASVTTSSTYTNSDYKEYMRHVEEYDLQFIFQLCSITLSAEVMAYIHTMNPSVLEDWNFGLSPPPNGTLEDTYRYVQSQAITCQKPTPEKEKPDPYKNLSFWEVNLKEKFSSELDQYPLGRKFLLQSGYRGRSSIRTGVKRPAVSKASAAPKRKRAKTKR
# HPV31 VLP = target: T4, HPV31 VLP (Human papillomavirus type 31, UniProt P17388 1-504)
# T4 construct: also called HPV31完整VLP蛋白
# T4 sequence: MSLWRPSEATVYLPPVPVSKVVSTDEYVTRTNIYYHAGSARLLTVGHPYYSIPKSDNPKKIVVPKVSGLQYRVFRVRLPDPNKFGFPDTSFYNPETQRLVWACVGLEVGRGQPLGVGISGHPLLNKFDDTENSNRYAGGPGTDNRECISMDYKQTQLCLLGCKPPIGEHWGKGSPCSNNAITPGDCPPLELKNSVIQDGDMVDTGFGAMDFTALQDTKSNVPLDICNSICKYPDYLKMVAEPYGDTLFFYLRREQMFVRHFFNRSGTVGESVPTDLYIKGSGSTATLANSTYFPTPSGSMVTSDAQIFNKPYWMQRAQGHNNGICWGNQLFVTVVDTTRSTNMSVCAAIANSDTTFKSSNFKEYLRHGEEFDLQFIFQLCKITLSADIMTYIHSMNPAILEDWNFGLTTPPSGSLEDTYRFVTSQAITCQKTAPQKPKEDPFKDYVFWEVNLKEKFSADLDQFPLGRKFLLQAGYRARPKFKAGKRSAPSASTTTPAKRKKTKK
# HPV35 VLP = target: T5, HPV35 VLP (Human papillomavirus type 35, UniProt P27232 1-502)
# T5 construct: also called HPV35完整VLP蛋白
# T5 sequence: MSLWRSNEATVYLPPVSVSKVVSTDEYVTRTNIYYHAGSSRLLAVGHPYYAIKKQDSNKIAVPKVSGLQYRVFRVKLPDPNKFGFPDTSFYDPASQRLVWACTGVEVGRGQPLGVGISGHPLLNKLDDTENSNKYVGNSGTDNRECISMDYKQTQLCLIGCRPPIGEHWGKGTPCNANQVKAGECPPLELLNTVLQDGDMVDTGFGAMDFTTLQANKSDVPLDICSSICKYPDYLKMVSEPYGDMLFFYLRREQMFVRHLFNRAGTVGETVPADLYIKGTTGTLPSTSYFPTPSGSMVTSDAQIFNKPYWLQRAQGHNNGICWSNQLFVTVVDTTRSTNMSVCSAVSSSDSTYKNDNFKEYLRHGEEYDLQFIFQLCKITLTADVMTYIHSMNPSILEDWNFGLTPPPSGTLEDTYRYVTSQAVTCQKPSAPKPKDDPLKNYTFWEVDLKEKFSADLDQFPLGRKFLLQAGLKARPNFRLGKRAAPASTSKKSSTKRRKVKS
# HPV39 VLP = target: T6, HPV39 VLP (Human papillomavirus type 39, UniProt P24838 1-505)
# T6 construct: also called HPV39完整VLP蛋白
# T6 sequence: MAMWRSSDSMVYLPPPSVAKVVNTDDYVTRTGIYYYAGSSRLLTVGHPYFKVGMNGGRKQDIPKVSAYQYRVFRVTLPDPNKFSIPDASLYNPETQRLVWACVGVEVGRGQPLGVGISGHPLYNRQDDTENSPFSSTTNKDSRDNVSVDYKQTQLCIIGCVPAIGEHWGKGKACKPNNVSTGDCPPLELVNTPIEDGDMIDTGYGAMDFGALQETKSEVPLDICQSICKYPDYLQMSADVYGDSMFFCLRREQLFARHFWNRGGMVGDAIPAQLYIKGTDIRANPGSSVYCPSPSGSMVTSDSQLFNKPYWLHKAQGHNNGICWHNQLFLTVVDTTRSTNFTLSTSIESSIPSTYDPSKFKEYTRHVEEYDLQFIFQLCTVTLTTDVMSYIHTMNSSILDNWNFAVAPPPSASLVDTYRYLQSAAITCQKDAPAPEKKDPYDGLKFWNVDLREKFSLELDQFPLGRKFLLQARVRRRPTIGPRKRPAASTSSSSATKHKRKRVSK
binder,measurement,setting,value
B1,OD450-blank,HPV52 VLP,0.003 OD450
same,OD450-blank,HPV16 L1 VLP蛋白,2.53 OD450
same,OD450-blank,HPV6 VLP,0.004 OD450
same,OD450-blank,HPV31 VLP,0.002 OD450
same,OD450-blank,HPV35 VLP,0.001 OD450
same,OD450-blank,HPV39 VLP,0.004 OD450
